{"source": "the DeepSol protein solubility set", "data": [{"assay": "soluble on expression in E. coli; label from the status in PepcDB or PDB records", "values": [{"sequence": "MKPAYPPLLLQMSPAYTPRPLKNLFTANQCWAHLIEEGGLRDIEVESVTKMLACGTSILGVKHYTCGNHSCPHVKYLCNTCSCRACPSCGKKATDQWIANQQHRLPECTWQHLVFTLPDTLWPLFFHNRHWLDALCRLAVDNLLYAGRRRGVEVGVFCAIHTYGRRLNWHPHIHVSVTLGGIDDAGVWKDLSFHPSALRRRWMWNVRQYLLSQWEHTTVPPENAHLQSENDWRHLVLNAGGQHWHIHLSKKTKNGKKTVNYLGRYLKKPPISGSRLAHYTSGATLSFTYLDHRTKTYQQETLSQTDMLRRVVQHIPEKHFRMIRYFGFLANRVCGRQLPRVYEAIRMERRGKAPKLYFAQMSKAFLHRDPFSCVLCGARMVYTAAIAGLTVQGLINNAQSIAQLRYVPA", "soluble on expression in E. coli": "not soluble"}, {"sequence": "MKPDETPMFDPSLLKEVDWSQNTATFSPAISPTHPGEGLVLRPLCTADLNRGFFKVLGQLTETGVVSPEQFMKSFEHMKKSGDYYVTVVEDVTLGQIVATATLIIEHKFIHSCAKRGRVEDVVVSDECRGKQLGKLLLSTLTLLSKKLNCYKITLECLPQNVGFYKKFGYTVSEENYMCRRFLK", "soluble on expression in E. coli": "soluble"}, {"sequence": "MKPIDRFSYLKNNRVSQDTSSLVQCYLPIIGQEALSLYLYTISFWDNGRKEYLFSSILNHLNFGMDRLIKSLKILSAFNLLTLYQKGDVYQLALHAPLSSQDFLGHPVYRRLLEKKIGDVAVEDLKVESADGEEIPVSLNQVFPELAELGSQEDLGLKKKVANDFDLEHFRQLMARDGLRFADEQSDVLNLFAIAEEKKWTWFETYQLAKSTAVSQVISTKRMREKIAQKPVSSDFSLKEATIIKEAKSKTALQFLAEIKQTRKGTITQTERELLQQMAGLGLLDEVINIILLLTFNKVDSANINEKYAMKVANDYAYQKIHSAEEAVLRIRDRGQKAKTQKQNQTAPEKTNVPKWSNPEYKNETSEETRLELERKKQELLARLEKGGD", "soluble on expression in E. coli": "not soluble"}, {"sequence": "MKPLLLSRRTHQKPGNYASGRGFPSSTRYIEDVQWLLKEFEPFVRVSADLPFVKARDIALIRSELEKKKPASLEVCLLEHHHHHH", "soluble on expression in E. coli": "not soluble"}, {"sequence": "MKPVQSVSATQHYNPLTNLGQEASCSHEISGITQTEGMQATAATTQTAEQLTTARVRDITAAAKVIPDGTTVMSRKPEDLSQLQTAYLAAKNAPTHPDLYLKLCETFRVHDERHASEGHENICAKTMTARIDDDAIRVMAYASRGMHGGDVNNFLKFSFNSGLPNPISSALPSMLTFGASSFIGAVHGPWSGFGSALAFAAAKPFMAGGIQPAIVSLCDNIRGRNAPTVLAKGEVNDEIWLDAAAQTLEGLNEDTRRALTSFDDAVQAAITSVGIRDPKFLETDEGLELFFDHLSDTHFNCLREALEGVNNALQNTAPQTRESLRALEEASRPNMLEQRETTLKAEFSNLRQKEGNDWQRIPRSLRASGGTLTSGLSGLKRDEIPTRMNPALDRKSHFEGLNALASPAVGTSYAAAISLLQSPMAGLDERNKQKFNVKAAIVFYDAFTPEGKQRYLAGEEMDPDRDVDQAKLRGVFTSVSEYMVKSTQENLKQRQKVLGVEISEAGHALNALPENTSSITPPEIRAKVERYKALSADMSAVTQAIREGNPNFLTDLPDGEVKKAFDDCVNSGGMHVLENMTKVKYAKQGELKAQWTQKVSTDVSMFGLAGQFTPSIVNKLAAAICGGAGHIPNAVVGFLGAYSLAASFIGAQTQFAAINAKNNFREGNPKPTSLETFMRGNLAPVMQASANRHSQHALQGAEQAISTARQALNSSLGQNL", "soluble on expression in E. coli": "not soluble"}, {"sequence": "MKQFNLIATSGQGIEALVAKELNNLGYQTRTENGFVRFSGNQRDILKTNIWLRTADRIKILVGEFHTLRFDDLFESVKALPWSELINWDDQFPVMEAHSRDSQLFSVPDIQRITKKAIVEALRSQTGHEDLPETGKHVGIDIRIDKNNVRIMIDTSGESLFKRGYRTEHGGAPLKENFAAALVLLTNWFTDNPFVDPVCGSGTIPIEAALIGKNIAPGINRTFEIESWAWFDKKLSQDVREEADILAKYDQPLDISGYDIDGNMIRISKENAKKAGLYNDIAFKQLAVKDWQTDKINGILVANPPYGQRLGEIEDARQIYQQMGSIYNQMSTWSKYILTSDEKFEQFYGKKATKKRKLYNGPIRTDLYQYWGKKVR", "soluble on expression in E. coli": "not soluble"}, {"sequence": "MKQLTVEDAKQIELEILDYIDTLCKKHNINYIINYGTLIGAVRHEGFIPWDDDIDLSMPREDYQRFINIFQKEKSKYKLLSLETDKNYFNNFIKITDSTTKIIDTRNTKTYESGIFIDIFPIDRFDDPKVIDTCYKLESFKLLSFSKHKNIVYKDSLLKDWIRTAFWLLLRPVSPRYFANKIEKEIQKYSRENGQYMAFIPSKFKEKEVFPSGTFDKTIDLPFENLSLPAPEKFDTILTQFYGDYMTLPPEEKRFYSHEFHAYKLEDLEHHHHHH", "soluble on expression in E. coli": "soluble"}, {"sequence": "MKQPKVSVIVTCYNYATYLEGCLASILNQTYQDFELVIINDGSTDNTDEVISRFLDNDKVRYINQKNTGQAIATNNGIAAAAGELIAFLDADDLWEPTKLEKQVRLFNRDSIGVVYSRIRFMDAEGCTLDMQLEGKYYTPRSGRVTDALLFENFIPYSSTVVRKECFDKFGMFNPEYKNGLDWDLWLRISREYEFDFVDEYLLIYRIGHPGQLTSNVERSVRCADLIFDRFLEENPGIVPDSVVRKAMAYSYCRRGNQFRKIDRKRSNGFFLNALAKNPAEIGAYVGLVKNFLNMLEHHHHHH", "soluble on expression in E. coli": "not soluble"}, {"sequence": "MKQQGTTLPANNHTLKQYAFFAGMLSSLKKQKWRKGMSESLHLTRNGSILEITLDRPKANAIDAKTSFEMGEVFLNFRDDPQLRVAIITGAGEKFFSAGWDLKAAAEGEAPDADFGPGGFAGLTEIFNLDKPVIAAVNGYAFGGGFELALAADFIVCADNASFALPEAKLGIVPDSGGVLRLPKILPPAIVNEMVMTGRRMGAEEALRWGIVNRVVSQAELMDNARELAQQLVNSAPLAIAALKEIYRTTSEMPVEEAYRYIRSGVLKHYPSVLHSEDAIEGPLAFAEKRDPVWKGR", "soluble on expression in E. coli": "not soluble"}, {"sequence": "MKQTFITLGEGLTDLFEFMTMIEYNHQRIDKIIYFHSPQAENKKSSVAIIMNPTTGNHFQAFYIMINAIKYPYPDSNKKFQMINDCAEKFDIPILGIDVQPPQAFHDLSLYYNYLISVLRLQKWIPELQLEHHHHHH", "soluble on expression in E. coli": "not soluble"}, {"sequence": "MKRCLAILAFAALLFPALPAYSAPARQPSSNTPPPDIVMHPEYARTIGRLAYVWGWPMVNMLNRNARITKAPHPGLLGGILPAAPRGQVGMLHDYILPAETFVTCPNQDVVYGLGFFSLDTEPVIAQVPDFGDRFWVYALYDHRTNQFGELGKPYRSKPGFYLLVGPNWKGQKPAGVQAIIRSPTALANAIPRIFMDDTDEDRQAIQKKINQVVFYPLKDFDGKMKSLDWQSTADIPNPGADSANAGETRWVVPEEFFNQFGQVLDMVPPLPGEEAMYVQFRSMMDAAAKDPAIKNALVEVAKETEEQVIAPFFQWKHNGKPAGNNWNRSVNNAQTGLDYFNRTGTAKSNMFDNRPNETQYFYTDFDSTGAVLDGGKRYEITFASGQLPPVKGFWSLTLYNKHHLFSPNDLNRYSLGTKNKNLVRGPDGSLTIHVGPTSPGKDKEANWLPSPREPISLYIRAYWGEQAILDGTWKPPAVKKIELEHHHHHH", "soluble on expression in E. coli": "not soluble"}, {"sequence": "MKRFRKNNLELELIRELSEIDFYNISAPLNSKEFWKEWQEKFNRANLTRIALRNILRNKRLSPKEYRKVKNSIKKYEDIINYLNALKLTALNARGSFGGYFIEFDEDEEENEGGT", "soluble on expression in E. coli": "not soluble"}, {"sequence": "MKRIAFVFSTAPHGTAAGREGLDALLATSALTDDLAVFFIADGVFQLLPGQKPDAVLARDYIATFKLLGLYDIEQCWVCAASLRERGLDPQTPFVVEATPLEADALRRELANYDVILRF", "soluble on expression in E. coli": "soluble"}, {"sequence": "MKRIGVFTSGGDAPGMNAAIRAVVRQAHALGVEVIGIRRGYAGMIQGEMVPLGVRDVANIIQRGGTILLTARSQEFLTEEGRAKAYAKLQAAGIEGLVAIGGDGTFRGALCLVEEHGMPVVGVPGTIDNDLYGTDYTIGFDTAVNTALEAIDRIRDTAASHERVFFIEVMGRHAGFIALDVGLAGGAEVIAVPEEPVDPKAVAEVLEASQRRGKKSSIVVVAEGAYPGGAAGLLAAIREHLQVEARVTVLGHIQRGGSPTAKDRILASRLGAAAVEALVGGASGVMVGEVEGEVDLTPLKEAVERRKDINRALLRLSQVLAL", "soluble on expression in E. coli": "soluble"}, {"sequence": "MKRKFLIGSHGRLASGLQSSIDILAGMGQALETIDAYVDDSDYTSQIDDFIAGVAADEQGLIFTDLLGGSVNQKMVTAVMNSGKDNIFLITNSNLATLLSLVFLKPGEALTKDEIVTVINESQVQLVDLVPETNSEDDFFD", "soluble on expression in E. coli": "not soluble"}]}]}
